Measured values taken from patent US20170015742A1 (published 2017).

Target: recombinant human PDGF-BB (human, UniProt P01127 82-190)
Experiment: cell-based or functional assay

Chain of recombinant human PDGF-BB (P01127 82-190 limits assumed): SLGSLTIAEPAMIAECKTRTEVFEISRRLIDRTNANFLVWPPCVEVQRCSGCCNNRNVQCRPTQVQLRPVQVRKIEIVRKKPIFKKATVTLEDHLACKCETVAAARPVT

| NIH-3T3 hPDGF-BB Potency IC50 [nM] | Binder |
| --- | --- |
| 0.148 | 9A8.12-SL-9E8.4E DVD-Ig (PR-1577166) (bispecific antibody, human IgG1, kappa, L234A L235A) heavy: EVQLVQSGAEVKKPGASVKVSCKASGYTFTNYGMYWVRQAPGQGLEWMGWINTETGKPIYADDFKGRVTMTTDTSTSTAYMELRSLRSDDTAVYYCARVDYDGSFWFAYWGQGTLVTVSSASTKGPEVTLRESGPALVKPTQTLTLTCTFSGFSLSTYGMGVGWIRQPPGKALEWLANIWWDDDKYYNPSLKNRLTISKDTSKNQVVLTMTNMDPVDTATYYCARIESIGTTYSFDYWGQGTMVTVSSASTKGPSVFPLAPSSKSTSGGTAALGCLVKDYFPEPVTVSWNSGALTSGVHTFPAVLQSSGLYSLSSVVTVPSSSLGTQTYICNVNHKPSNTKVDKKVEPKSCDKTHTCPPCPAPEAAGGPSVFLFPPKPKDTLMISRTPEVTCVVVDVSHEDPEVKFNWYVDGVEVHNAKTKPREEQYNSTYRVVSVLTVLHQDWLNGKEYKCKVSNKALPAPIEKTISKAKGQPREPQVYTLPPSREEMTKNQVSLTCLVKGFYPSDIAVEWESNGQPENNYKTTPPVLDSDGSFFLYSKLTVDKSRWQQGNVFSCSVMHEALHNAYTQKSLSLSPGK light: DTQLTQSPSSLSASVGDRVTITCRASESVSTVIHWYQQKPGKQPKLLIHGASNLESGVPSRFSGSGSGTDFTLTISSLQPEDFATYFCQQHWNDPPTFGQGTKLEIKRTVAAPSVFIFPPEFVLTQSPGTLSLSPGERATLSCERSSGDIGESYVSWYQQKPGQAPRLVIYADDQRPSGIPDRFSGSGSGTDFTLTISRLEPEDFAVYYCQSYDINIDIVFGGGTKVEIKRTVAAPSVFIFPPSDEQLKSGTASVVCLLNNFYPREAKVQWKVDNALQSGNSQESVTEQDSKDSTYSLSSTLTLSKADYEKHKVYACEVTHQGLSSPVTKSFNRGEC |
| 0.204 | 9A8.12-GS-9E8.4E DVD-Ig (PR-1577165) (bispecific antibody, human IgG1, kappa, L234A L235A) heavy: EVQLVQSGAEVKKPGASVKVSCKASGYTFTNYGMYWVRQAPGQGLEWMGWINTETGKPIYADDFKGRVTMTTDTSTSTAYMELRSLRSDDTAVYYCARVDYDGSFWFAYWGQGTLVTVSSGGGGSGGGGSEVTLRESGPALVKPTQTLTLTCTFSGFSLSTYGMGVGWIRQPPGKALEWLANIWWDDDKYYNPSLKNRLTISKDTSKNQVVLTMTNMDPVDTATYYCARIESIGTTYSFDYWGQGTMVTVSSASTKGPSVFPLAPSSKSTSGGTAALGCLVKDYFPEPVTVSWNSGALTSGVHTFPAVLQSSGLYSLSSVVTVPSSSLGTQTYICNVNHKPSNTKVDKKVEPKSCDKTHTCPPCPAPEAAGGPSVFLFPPKPKDTLMISRTPEVTCVVVDVSHEDPEVKFNWYVDGVEVHNAKTKPREEQYNSTYRVVSVLTVLHQDWLNGKEYKCKVSNKALPAPIEKTISKAKGQPREPQVYTLPPSREEMTKNQVSLTCLVKGFYPSDIAVEWESNGQPENNYKTTPPVLDSDGSFFLYSKLTVDKSRWQQGNVFSCSVMHEALHNAYTQKSLSLSPGK light: DTQLTQSPSSLSASVGDRVTITCRASESVSTVIHWYQQKPGKQPKLLIHGASNLESGVPSRFSGSGSGTDFTLTISSLQPEDFATYFCQQHWNDPPTFGQGTKLEIKRGGSGGGGSGEFVLTQSPGTLSLSPGERATLSCERSSGDIGESYVSWYQQKPGQAPRLVIYADDQRPSGIPDRFSGSGSGTDFTLTISRLEPEDFAVYYCQSYDINIDIVFGGGTKVEIKRTVAAPSVFIFPPSDEQLKSGTASVVCLLNNFYPREAKVQWKVDNALQSGNSQESVTEQDSKDSTYSLSSTLTLSKADYEKHKVYACEVTHQGLSSPVTKSFNRGEC |
